Experimental findings from the supplement of paper PMC9112550, “Optimization of the antimicrobial peptide Bac7 by deep mutational scanning” (BMC Biology, 2022) are described below.

This data set relates to Escherichia coli TOP10. Kind of data set: shrunken log2 fold change of peptide-encoding DNA abundance (4.5 h post-induction vs induction); higher = less antimicrobial activity (less host growth inhibition). The note with it: time post-induction: 4.5 h; library: site-saturation at positions 5, 18, 19, 20.
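Further: peptides expressed intracellularly from a pBAD plasmid library in pooled LB shake-flask culture, induced with 0.3% L-arabinose, DNA abundance read by NGS, three biological replicates, DESeq2 with apeglm shrinkage.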

With RRIRARPPRLPRPRPRPRSFPRP, the “shrunken log2 fold change” value worked out at 0.202.

On to RRIRVRPPRLPRPRPRPIMWPRP, for which the “shrunken log2 fold change” value amounted to 0.03.

As to RRIRRRPPRLPRPRPRPCSHPRP, the “shrunken log2 fold change” value was -0.18.

In the case of RRIRTRPPRLPRPRPRPRMTPRP, the “shrunken log2 fold change” value is 0.146.

For RRIRNRPPRLPRPRPRPILIPRP, the “shrunken log2 fold change” value is -0.37.

With RRIRARPPRLPRPRPRPCRTPRP, the “shrunken log2 fold change” value was 0.0201.

Turning to RRIRWRPPRLPRPRPRPLNYPRP, the “shrunken log2 fold change” value is -0.546.

Take RRIRPRPPRLPRPRPRPPRPPRP: the “shrunken log2 fold change” value stood at 0.682.

As for RRIRHRPPRLPRPRPRPGDDPRP, the “shrunken log2 fold change” value was -0.044.

Take RRIRTRPPRLPRPRPRPKFSPRP: the “shrunken log2 fold change” value is -0.189.

For RRIRRRPPRLPRPRPRPFRVPRP, the “shrunken log2 fold change” value is 0.12.

Regarding RRIRQRPPRLPRPRPRPDLGPRP, the “shrunken log2 fold change” value stood at 0.0039.

On to RRIRLRPPRLPRPRPRPQMTPRP, for which the “shrunken log2 fold change” value is -0.0928.

On to RRIRRRPPRLPRPRPRPKFGPRP, for which the “shrunken log2 fold change” value was 0.172.

As to RRIRIRPPRLPRPRPRPISRPRP, the “shrunken log2 fold change” value is -0.0044.

With RRIRARPPRLPRPRPRPLRTPRP, the “shrunken log2 fold change” value was determined as 0.541.

For the sequence RRIRTRPPRLPRPRPRPPRTPRP, the “shrunken log2 fold change” value was determined as 0.281.

For the sequence RRIRQRPPRLPRPRPRPPIMPRP, the “shrunken log2 fold change” value was -0.344.

For RRIRWRPPRLPRPRPRPIHCPRP, the “shrunken log2 fold change” value was found to be 0.0948.

As to RRIRLRPPRLPRPRPRPDCNPRP, the “shrunken log2 fold change” value is 0.0608.

Turning to RRIRLRPPRLPRPRPRPKVDPRP, the “shrunken log2 fold change” value was -0.00247.

Consider RRIRWRPPRLPRPRPRPMWSPRP, for which the “shrunken log2 fold change” value is 0.266.

RRIRIRPPRLPRPRPRPTTPPRP: the “shrunken log2 fold change” value came to 0.552.

On to RRIRDRPPRLPRPRPRPQDSPRP, for which the “shrunken log2 fold change” value was 0.00388.

For the sequence RRIRNRPPRLPRPRPRPPWDPRP, the “shrunken log2 fold change” value is 0.144.

With RRIRNRPPRLPRPRPRPRNPPRP, the “shrunken log2 fold change” value was 0.0944.

Regarding RRIRRRPPRLPRPRPRPQWKPRP, the “shrunken log2 fold change” value turned out to be 0.016.

For RRIRARPPRLPRPRPRPQNAPRP, the “shrunken log2 fold change” value was 0.243.

Regarding RRIRNRPPRLPRPRPRPDDNPRP, the “shrunken log2 fold change” value was -0.0156.

With RRIRARPPRLPRPRPRPVSKPRP, the “shrunken log2 fold change” value turned out to be 0.141.

With RRIRARPPRLPRPRPRPTHWPRP, the “shrunken log2 fold change” value came out at 0.863.

As for RRIRKRPPRLPRPRPRPEDEPRP, the “shrunken log2 fold change” value was 2.15.

On to RRIRHRPPRLPRPRPRPNNTPRP, for which the “shrunken log2 fold change” value was -0.931.

Turning to RRIRIRPPRLPRPRPRPEGVPRP, the “shrunken log2 fold change” value stood at 0.115.

Regarding RRIRGRPPRLPRPRPRPCCTPRP, the “shrunken log2 fold change” value was 1.31.

Regarding RRIRSRPPRLPRPRPRPMRYPRP, the “shrunken log2 fold change” value was determined as 0.215.

As for RRIRWRPPRLPRPRPRPCYWPRP, the “shrunken log2 fold change” value was -0.201.

Consider RRIRNRPPRLPRPRPRPFHTPRP, for which the “shrunken log2 fold change” value is -0.232.

Consider RRIRGRPPRLPRPRPRPDLHPRP, for which the “shrunken log2 fold change” value was found to be 0.655.

On to RRIRCRPPRLPRPRPRPDRFPRP, for which the “shrunken log2 fold change” value was determined as 0.0616.

On to RRIRKRPPRLPRPRPRPPFEPRP, for which the “shrunken log2 fold change” value turned out to be 0.143.

Take RRIRIRPPRLPRPRPRPVDLPRP: the “shrunken log2 fold change” value was 0.0939.

For RRIRFRPPRLPRPRPRPGDDPRP, the “shrunken log2 fold change” value was 0.342.

As to RRIRFRPPRLPRPRPRPCIRPRP, the “shrunken log2 fold change” value is -0.0335.

As for RRIRARPPRLPRPRPRPNKWPRP, the “shrunken log2 fold change” value is -0.0519.

For the sequence RRIRHRPPRLPRPRPRPVSEPRP, the “shrunken log2 fold change” value is -0.254.

Take RRIRQRPPRLPRPRPRPKSDPRP: the “shrunken log2 fold change” value is -0.2.

As for RRIRIRPPRLPRPRPRPGQNPRP, the “shrunken log2 fold change” value was -0.0607.

RRIRYRPPRLPRPRPRPPMMPRP: the “shrunken log2 fold change” value was -0.836.

For the sequence RRIRQRPPRLPRPRPRPEYIPRP, the “shrunken log2 fold change” value is -0.00306.

Consider RRIRYRPPRLPRPRPRPNLYPRP, for which the “shrunken log2 fold change” value was -0.658.

Take RRIRDRPPRLPRPRPRPFFHPRP: the “shrunken log2 fold change” value turned out to be 0.119.

Consider RRIRYRPPRLPRPRPRPEGSPRP, for which the “shrunken log2 fold change” value is -0.0779.

Take RRIRARPPRLPRPRPRPAKMPRP: the “shrunken log2 fold change” value was 0.463.

With RRIRYRPPRLPRPRPRPGTHPRP, the “shrunken log2 fold change” value is -0.678.

RRIRKRPPRLPRPRPRPPNQPRP: the “shrunken log2 fold change” value was found to be 0.17.

On to RRIRQRPPRLPRPRPRPVQNPRP, for which the “shrunken log2 fold change” value was 0.0137.

RRIRFRPPRLPRPRPRPGKRPRP: the “shrunken log2 fold change” value was -0.0962.

For the sequence RRIRFRPPRLPRPRPRPPQPPRP, the “shrunken log2 fold change” value was 0.795.

Consider RRIRMRPPRLPRPRPRPFPGPRP, for which the “shrunken log2 fold change” value is -0.0808.

On to RRIRTRPPRLPRPRPRPDFPPRP, for which the “shrunken log2 fold change” value is -0.178.

As to RRIRMRPPRLPRPRPRPRAAPRP, the “shrunken log2 fold change” value was determined as 3.2.

Regarding RRIRERPPRLPRPRPRPWNLPRP, the “shrunken log2 fold change” value is -0.00195.

For RRIRGRPPRLPRPRPRPQNCPRP, the “shrunken log2 fold change” value came out at 0.0394.

Consider RRIRLRPPRLPRPRPRPKHNPRP, for which the “shrunken log2 fold change” value was -0.384.

On to RRIRNRPPRLPRPRPRPNRCPRP, for which the “shrunken log2 fold change” value is -0.0238.

For RRIRHRPPRLPRPRPRPPESPRP, the “shrunken log2 fold change” value is 0.211.

As for RRIRIRPPRLPRPRPRPDHMPRP, the “shrunken log2 fold change” value was -0.87.

As to RRIRDRPPRLPRPRPRPVAAPRP, the “shrunken log2 fold change” value came to 0.833.

As for RRIRKRPPRLPRPRPRPQVKPRP, the “shrunken log2 fold change” value was 0.0274.

RRIRNRPPRLPRPRPRPFFCPRP: the “shrunken log2 fold change” value stood at 0.118.

Regarding RRIRTRPPRLPRPRPRPRVEPRP, the “shrunken log2 fold change” value is 0.073.

As for RRIRVRPPRLPRPRPRPVHPPRP, the “shrunken log2 fold change” value was 0.312.

Consider RRIRARPPRLPRPRPRPVEKPRP, for which the “shrunken log2 fold change” value stood at 0.347.

Consider RRIRQRPPRLPRPRPRPRCCPRP, for which the “shrunken log2 fold change” value came out at 0.061.

As for RRIRSRPPRLPRPRPRPTDRPRP, the “shrunken log2 fold change” value stood at 0.000994.

Turning to RRIRWRPPRLPRPRPRPDESPRP, the “shrunken log2 fold change” value was -0.0029.

For the sequence RRIRNRPPRLPRPRPRPTKNPRP, the “shrunken log2 fold change” value is -0.0348.

With RRIRRRPPRLPRPRPRPMTDPRP, the “shrunken log2 fold change” value turned out to be 0.00399.

Turning to RRIRKRPPRLPRPRPRPCQWPRP, the “shrunken log2 fold change” value was -0.0983.

Regarding RRIRQRPPRLPRPRPRPWEAPRP, the “shrunken log2 fold change” value is -0.00204.

On to RRIRPRPPRLPRPRPRPYPCPRP, for which the “shrunken log2 fold change” value is -0.134.

Turning to RRIRHRPPRLPRPRPRPGLMPRP, the “shrunken log2 fold change” value is -0.162.

RRIRTRPPRLPRPRPRPWVIPRP: the “shrunken log2 fold change” value amounted to 0.0147.

Take RRIRERPPRLPRPRPRPWVDPRP: the “shrunken log2 fold change” value is -0.665.

In the case of RRIRTRPPRLPRPRPRPDCNPRP, the “shrunken log2 fold change” value came to 0.0556.

As to RRIRCRPPRLPRPRPRPECVPRP, the “shrunken log2 fold change” value is 0.588.

On to RRIRCRPPRLPRPRPRPATYPRP, for which the “shrunken log2 fold change” value was -0.389.

Regarding RRIRQRPPRLPRPRPRPAMCPRP, the “shrunken log2 fold change” value came to 0.171.

Take RRIRSRPPRLPRPRPRPQDIPRP: the “shrunken log2 fold change” value is -0.296.

Take RRIRPRPPRLPRPRPRPQPYPRP: the “shrunken log2 fold change” value was -0.177.

Regarding RRIRFRPPRLPRPRPRPRNMPRP, the “shrunken log2 fold change” value was -0.127.

With RRIRLRPPRLPRPRPRPNRTPRP, the “shrunken log2 fold change” value turned out to be 0.0829.

On to RRIRPRPPRLPRPRPRPIEPPRP, for which the “shrunken log2 fold change” value came to 0.109.

Consider RRIRARPPRLPRPRPRPNYLPRP, for which the “shrunken log2 fold change” value was found to be 0.00106.

In the case of RRIRQRPPRLPRPRPRPQPFPRP, the “shrunken log2 fold change” value was -0.0492.

Take RRIRSRPPRLPRPRPRPLQKPRP: the “shrunken log2 fold change” value was 0.0179.

On to RRIRGRPPRLPRPRPRPWEIPRP, for which the “shrunken log2 fold change” value turned out to be 0.361.

Take RRIRQRPPRLPRPRPRPNNQPRP: the “shrunken log2 fold change” value is -0.477.

Turning to RRIRNRPPRLPRPRPRPEEGPRP, the “shrunken log2 fold change” value is 0.234.

Consider RRIRVRPPRLPRPRPRPYKWPRP, for which the “shrunken log2 fold change” value was -0.266.

For the sequence RRIRERPPRLPRPRPRPIKCPRP, the “shrunken log2 fold change” value is -0.0487.

Regarding RRIRGRPPRLPRPRPRPLNNPRP, the “shrunken log2 fold change” value was -0.109.

RRIRIRPPRLPRPRPRPTTDPRP: the “shrunken log2 fold change” value is -0.0551.

On to RRIRKRPPRLPRPRPRPNGCPRP, for which the “shrunken log2 fold change” value was -0.0163.

In the case of RRIRIRPPRLPRPRPRPSCQPRP, the “shrunken log2 fold change” value was -0.0446.

Turning to RRIRWRPPRLPRPRPRPQFMPRP, the “shrunken log2 fold change” value is -0.155.

In the case of RRIRDRPPRLPRPRPRPCGMPRP, the “shrunken log2 fold change” value stood at 0.0207.

Turning to RRIRNRPPRLPRPRPRPQWNPRP, the “shrunken log2 fold change” value was -0.319.

Take RRIRVRPPRLPRPRPRPAGQPRP: the “shrunken log2 fold change” value came to 0.375.

Turning to RRIRCRPPRLPRPRPRPIGDPRP, the “shrunken log2 fold change” value was -0.0014.

Regarding RRIRCRPPRLPRPRPRPNPDPRP, the “shrunken log2 fold change” value is -0.306.

On to RRIRCRPPRLPRPRPRPCMVPRP, for which the “shrunken log2 fold change” value is -0.587.

As to RRIRMRPPRLPRPRPRPNKGPRP, the “shrunken log2 fold change” value came out at 0.0758.

On to RRIRTRPPRLPRPRPRPFIMPRP, for which the “shrunken log2 fold change” value is -0.339.

As to RRIRARPPRLPRPRPRPKKGPRP, the “shrunken log2 fold change” value turned out to be 0.364.

As to RRIRMRPPRLPRPRPRPIMYPRP, the “shrunken log2 fold change” value is -0.171.

Take RRIRLRPPRLPRPRPRPWCDPRP: the “shrunken log2 fold change” value is -0.437.

As for RRIRQRPPRLPRPRPRPSISPRP, the “shrunken log2 fold change” value is -0.22.

RRIRVRPPRLPRPRPRPHCRPRP: the “shrunken log2 fold change” value turned out to be 0.199.

Regarding RRIRRRPPRLPRPRPRPYPRPRP, the “shrunken log2 fold change” value came to 0.207.

In the case of RRIRGRPPRLPRPRPRPRLWPRP, the “shrunken log2 fold change” value was 1.36.

For RRIRVRPPRLPRPRPRPIFYPRP, the “shrunken log2 fold change” value is -0.378.

As to RRIRQRPPRLPRPRPRPSQAPRP, the “shrunken log2 fold change” value was 0.103.

On to RRIRFRPPRLPRPRPRPIVDPRP, for which the “shrunken log2 fold change” value was -0.136.
